# Measurements as given in publication PMC6911004, “Fragment-based screening identifies molecules targeting the substrate-binding ankyrin repeat domains of tankyrase” (Scientific Reports, 2019).
# Target: T1, TNKS2 ARC5 (Homo sapiens, UniProt Q9H2K2)
# T1 construct: followed by TNKS2 ARC5 (1 μL, 100 μM stock); His6-GST; made in house; host or cells: E. coli
# T1 sequence (Q9H2K2 whole entry, looked up): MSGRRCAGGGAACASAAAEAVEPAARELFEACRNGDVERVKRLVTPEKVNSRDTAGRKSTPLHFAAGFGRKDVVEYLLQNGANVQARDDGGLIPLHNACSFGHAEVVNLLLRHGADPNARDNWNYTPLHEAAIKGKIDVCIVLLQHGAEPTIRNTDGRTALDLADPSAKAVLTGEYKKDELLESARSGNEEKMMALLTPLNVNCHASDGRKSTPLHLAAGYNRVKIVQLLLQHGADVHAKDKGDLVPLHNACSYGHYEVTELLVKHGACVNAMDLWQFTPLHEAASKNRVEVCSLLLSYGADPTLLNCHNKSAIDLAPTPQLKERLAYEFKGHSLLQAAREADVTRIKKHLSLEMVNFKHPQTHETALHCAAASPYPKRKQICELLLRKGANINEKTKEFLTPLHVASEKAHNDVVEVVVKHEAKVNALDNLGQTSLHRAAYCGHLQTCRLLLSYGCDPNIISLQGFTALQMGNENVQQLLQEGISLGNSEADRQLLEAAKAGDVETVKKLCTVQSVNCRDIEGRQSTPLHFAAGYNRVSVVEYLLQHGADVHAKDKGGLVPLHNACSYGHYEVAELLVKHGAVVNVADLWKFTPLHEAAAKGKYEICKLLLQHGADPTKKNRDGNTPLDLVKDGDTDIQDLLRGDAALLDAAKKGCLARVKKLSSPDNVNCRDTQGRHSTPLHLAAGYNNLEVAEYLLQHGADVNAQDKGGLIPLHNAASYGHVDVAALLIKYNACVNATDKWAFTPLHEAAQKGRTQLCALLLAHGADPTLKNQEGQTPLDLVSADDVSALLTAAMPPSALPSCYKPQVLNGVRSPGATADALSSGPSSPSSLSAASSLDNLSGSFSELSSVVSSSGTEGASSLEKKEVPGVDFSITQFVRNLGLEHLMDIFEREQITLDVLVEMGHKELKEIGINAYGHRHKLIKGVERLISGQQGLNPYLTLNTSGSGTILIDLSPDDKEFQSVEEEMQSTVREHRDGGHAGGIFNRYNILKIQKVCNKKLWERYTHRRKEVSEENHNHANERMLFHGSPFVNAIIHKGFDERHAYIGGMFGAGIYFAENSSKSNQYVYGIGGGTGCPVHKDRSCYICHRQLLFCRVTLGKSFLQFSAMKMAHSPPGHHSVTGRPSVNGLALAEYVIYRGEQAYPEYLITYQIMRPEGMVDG
# Assay: Differential scanning fluorimetry (DSF, thermal shift)
# Type: binding
# Conditions: ARC 20 μM + 3BP2 TBM peptide 200 μM, inflection point method
# Protocol: Therefore, we chose TNKS2 ARC5 for screening by DSF, anticipating the largest signal window for measuring changes in Tm upon fragment binding.
# We screened 1869 compounds in duplicate at a concentration of 500 μM, which we considered a reasonable compromise between having a sufficiently high concentration to identify weak binders while minimising the likelihood of false positives through fragment precipitation/aggregation and non-specific binding. The final DMSO concentration was 5%. We calculated melting temperatures using both the inflection point and the maximum peak of first derivative data methods. Both methods generally agreed, unless the melt curve was biphasic or misshapen, with slightly lower variability for the […] Tm determination method (see Materials and Methods for experimental and analysis details).
# We determined the melting temperature for the unbound ARC (Tm, 0) from the mean of 12 reference melting curves per plate, with 5% DMSO only. We calculated the change in melting temperature (ΔTm) by subtracting the mean Tm, 0 from Tm, compound. We tested compounds in duplicate, defining fragments as hits if they conferred a ΔTm outside two standard deviations (2σ) from the mean, in one or both replicates. To check for consistency between plates, we ran triplicate peptide controls; however, we excluded peptide ΔTm values from the calculation of the mean ΔTm to avoid skewing the results. We observed mean ΔTm values (IP/1st derivative methods) of −0.127/−0.331 °C and σ as 0.997/1.19 °C. A hit cut-off of 2σ gave absolute shifts of +1.87/+2.05 °C for compounds that stabilised and −2.13/−2.71 °C for compounds that destabilised the ARC (Fig. 2B).
# For the screen, a C1000 thermal cycler (Bio-Rad) was used to record melt curves. SYPRO Orange was purchased as a 5000 × stock in DMSO from Sigma Aldrich. The ICR fragment library was available as 100 mM stocks in DMSO, and dispensed (25 nL) using an ECHO acoustic liquid handling system into white 384-well PCR plates (Framestar, 4titude). Wells were backfilled with DMSO (225 nL). Buffer (2.75 μL, 25 mM HEPES-NaOH pH 7.5, 100 mM NaCl, 2 mM TCEP) was added, followed by TNKS2 ARC5 (1 μL, 100 μM stock) and then SYPRO orange dye (1 μL, 25×). The plate was centrifuged after the addition of each reagent (1 min, 1000 × g). Final assay concentrations were as follows: TNKS2 ARC5 (20 μM); fragment (500 μM); SYPRO Orange dye (5×); DMSO (5% v/v) in a total volume of 5 μL. Peptide control wells (3BP2 TBM 16-mer, 200 μM, sequence LPHLQRSPPDGQSFRSW with C-terminal tryptophan added for photometric concentration measurements, the N-terminus acetylated and the C-terminus amide-capped) were plated in triplicate, and there were 12 blank wells per plate, with DMSO only (250 nL, 5% v/v). Melt curves were recorded from 20–95 °C, with the temperature ramped by 0.5 °C every 15 s. Data were analysed using Vortex (Dotmatics) software and melting temperatures calculated from both the inflection point and the maximum peak of 1st-derivative data. Data points were excluded if the melt curve was poor, i.e., if there was no fluorescence signal above baseline, high fluorescence intensity throughout, or if the melt curve was shallow (<1000 rfu difference between baseline and peak maximum). The unbound melting temperature was determined from the mean of 12 reference melting curves, with 5% DMSO only. The change in melting temperature (ΔTm) was calculated by subtracting the mean Tm, 0 from Tm, compound. Compounds were tested in duplicate, and fragments were defined as hits if they gave a ΔTm outwith 2 σ from the mean in one or both replicates.
# For the experiment shown in Fig. 2A, ARC and 3BP2 TBM peptide concentrations were 20 and 200 μM, respectively, in 50 mM HEPES-NaOH pH 7.5, 100 mM NaCl, 2 mM TCEP and a total volume of 25 μL. SYPRO Orange was added at 5×. Data were recorded from 4–95 °C, with the temperature ramped by 0.5 °C every 15 s, using a CFX384 thermal cycler (Bio-Rad). […]
sequence,measurement,value
"LPHLQRSPPDGQSFRSW [3BP2 16-mer peptide, 16-mer TBM peptide derived from 3BP2, W added for A280, N-terminus acetylated, C-terminus amide-capped; positive control, reference compound]",ΔTm,4.14 °C
